Results: PMC6640053
pKd: −log10 of the molar value.

Tested on: Lrp (C-terminal His6 as stated; cloned NdeI/XhoI in pET28a) (Escherichia coli K-12 (strain FW102 genomic DNA))
Test: EMSA
Settings: no effector; apparent overall Kd; four complexes B1-B4; 10 mM Tris-HCl pH 7.4, 5 mM MgCl2, 250 mM KCl, 2.5 mM CaCl2, 0.5 mM DTT, 2.5% glycerol, 37 C 25 min; L-Arg and/or L-Leu when indicated; excess sonicated …

artP control region gave a pKd of 6.70.
